Experiments:
[1] = tested on: 4T1 breast carcinoma cells; assay: 4T1 breast carcinoma spontaneous metastasis, orthotopic syngeneic Balb/c model; type: in vivo, mouse
Experimental: 4T1 mouse breast carcinoma (spontaneous metastasis). Luciferase labeled 4T1 breast carcinoma cells (1×10^5/Balb/c mouse) are injected directly into the third mammary fat pad and treatment of mice (PBS control vs. mAb A54 500 μg/mouse, 3 times/week began 3 days after 4T1 cell inoculation. Mice were randomized into two groups of 6 mice, 4 days postinoculation (Day 0). On day 15 of the study the mammary fat pad including the primary tumor was excised on all mice while under 2% Isoflurane anaesthetic. Mice were treated with mAb A54 as described above and IVIS bioluminescent imaging is performed 12 and 18 days after mastectomy. At termination, mice are sacrificed and the number of overt macrometastases on the surface of the lungs was enumerated manually (Hammond et al., PLoS One 2012; 7(12):e52175).
IVIS imaging. Bioluminescent imaging of luciferase-expressing tumors is performed with a highly sensitive, cooled charge coupled device (CCD) camera mounted in a light-tight specimen box (IVIS; Xenogen Corp., Waltham, MA). Imaging is performed in real time, is non-invasive and provides quantitative data. Briefly, mice are injected intraperitoneally with D-luciferin substrate at 150 mg/kg, anesthetized and placed onto a warmed stage inside the light-tight camera box, with continuous exposure to isoflurane (EZAnesthesia, Palmer, PA). Light emitted from the bioluminescent cells is detected by the IVIS camera system with images quantified for tumor burden using a log-scale color range set at 5×10^4 to 1×10^7 and measurement of total photon counts per second (PPS) using Living Image software (Xenogen).
In subsequent studies, the effect of mAb A54 on cancer metastasis, the hallmark of heparanase activity, was investigated. A syngeneic breast carcinoma model was applied, which resembles the scenario in humans. Briefly, luciferase labeled 4T1 breast carcinoma cells (0.5×10^5) were orthotopically injected into the third mammary fat pad of Balb/c mice. Treatment of the mice (PBS control vs. mAb A54; 500 μg/mouse, 3 times/week) began 3 days after 4T1 cell inoculation. […] On day 15 of the study the mammary fat pad including the primary tumor was excised from all mice (under 2% Isoflurane anesthetic) and weighed. […] Mice were further treated with mAb A54 as described above and IVIS bioluminescent imaging was performed on day 35 (e.g., […]).

[2] = biological target: T1, recombinant human heparanase (Homo sapiens, UniProt Q9Y251); assay: heparanase activity assay: release of HS degradation fragments from 35S-labeled ECM; type: biochemical
T1 construct: purified recombinant active heparanase (200 ng) was pre incubated with the various hybridoma supernatants; recombinant active heparanase (200 ng) was preincubated with control mouse IgG or purified mAb A54
T1 sequence (Q9Y251 158-543 limits assumed): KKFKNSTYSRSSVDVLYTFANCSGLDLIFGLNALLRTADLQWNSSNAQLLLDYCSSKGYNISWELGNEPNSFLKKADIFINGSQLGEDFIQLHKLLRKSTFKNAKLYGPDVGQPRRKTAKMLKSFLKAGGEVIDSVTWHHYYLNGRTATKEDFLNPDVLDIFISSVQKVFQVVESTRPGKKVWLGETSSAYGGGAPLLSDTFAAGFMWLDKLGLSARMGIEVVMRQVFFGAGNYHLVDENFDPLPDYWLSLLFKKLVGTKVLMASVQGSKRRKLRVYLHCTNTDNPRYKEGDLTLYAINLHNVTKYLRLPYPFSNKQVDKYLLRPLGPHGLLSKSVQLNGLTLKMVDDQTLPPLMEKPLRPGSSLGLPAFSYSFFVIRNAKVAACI
T1 sequence (Q9Y251 36-109 limits assumed): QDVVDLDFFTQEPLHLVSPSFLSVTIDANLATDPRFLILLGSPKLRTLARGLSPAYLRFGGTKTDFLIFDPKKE
Experimental: Cell lysates, heparanase activity and protein blotting. Preparation of cell lysates, protein blotting, and measurement of heparanase enzymatic activity were carried out as described (Arvatz et al. Faseb J 2011; 24(12):4969-76). For inhibition studies, highly purified recombinant heparanase (200 ng) was pre-incubated with the indicated antibody ([…]) for 30 min on ice under neutral pH conditions (pH 7.2) before being added to ^35S-labelled ECM, used as a naturally produced substrate for heparanase (Gingis-Velitski et al. 2007, ibid.).
ECM degradation assay. […] More detail about the preparation of this substrate and its use for the heparanase assay can be found in: Current Protocols in Cell Biology (Vlodavsky 2001; pp. 10.4.1-10.4.14). Briefly, sulfate [^35S] labeled ECM coating the surface of 35 mm tissue culture dishes, is incubated (4 h, 37° C., pH 6.0, 1 ml final volume) with recombinant human heparanase (200 ng/ml) in the absence and presence of the A54 mAb. The reaction mixture contains: 50 mM NaCl, 1 mM DTT, 1 mM CaCl2), and 10 mM buffer Phosphate-Citrate, pH 6.0. To evaluate the occurrence of proteoglycan degradation, the incubation medium is collected and applied for gel filtration on Sepharose 6B columns (0.9×30 cm). Fractions (0.2 ml) are eluted with PBS and counted for radioactivity. […]
In order to select the hybridoma clone that best inhibits heparanase enzymatic activity, supernatants of the various hybridomas, raised against the 65 kDa latent heparanase protein, were collected, pre-incubated with recombinant heparanase and examined for the capacity to inhibit the release of heparan sulfate (HS) degradation fragments from sulfate labeled ECM. […] The mixture was then applied onto ^35S-labeled ECM-coated dishes and heparanase activity was determined as described under “Materials and Methods” above.
Next, the ability of purified mAb A54 to inhibit heparanase enzymatic activity was examined. […] The mixture was then applied onto dishes coated with ^35S-labeled ECM, and heparanase enzymatic activity was determined as described in ‘Methods’.

[3] = tested on: EMT-6 luciferase cells; assay: EMT-6 breast carcinoma tumor growth in Balb/c mice; type: in vivo; details: 360 μg/mouse, 2 times/week; vs PBS
Experimental: In subsequent studies, the effect of mAb A54 on breast carcinoma tumor growth was investigated. Balb/c mice (n=3) were inoculated in the mammary fad pad with EMT-6 luciferase cells (0.5×10^6), and mice were treated with A54 mAb (360 μg/mouse, 2 times/week) or PBS as control. Tumor growth was evaluated by IVIS imaging (FIGS. 9A and 9B) and quantification of luciferase signals is shown graphically (FIG. 9C). At the end of the experiment, tumors were resected and weighted (FIG. 9D).

B1: mAb A54: heparanase-neutralizing murine monoclonal antibody, IgG1-Kappa; VH SEQ ID NO: 7, VL SEQ ID NO: 8; binds HBD-II of heparanase (antibody, listed as Mus musculus, V domains shown)
VH: QVQLQQSGAELAKPGASVRMSCKASGYTFTNYWMHWVKQRPGQGLEWIGYINPTTGYTEYNQKFKDKATLTADKSSSTAYMQLSSLTSEDSAVYYCARGGAGYDYDEDYAMDYWGQGTSVTVSS
VL: DIVLTQSPASLAVSLGQRATISCRASESVEYFGTSYMNWYQQKPGQPPKLLIYLASILESGIPARFSGSGSGTDFTLNIHPVEEEDAATYYCQQSNEDPYTFGGGTKLEIK
[1]; 500 μg/mouse, 3 times/week, IVIS on day 12, vs PBS
  luciferase signal generated by the primary tumors: no differences in the luciferase signal
[1]; 500 μg/mouse, 3 times/week, IVIS on day 35, two out of 5 untreated mice developed lung metastases
  lung metastases (IVIS signal after mastectomy): hardly-detected signal
[1]; 500 μg/mouse, 3 times/week, excised day 15, vs untreated
  weight of excised primary tumors: no difference in weights
[1]; repeated experiment with similar results
  inhibition of lung colonization: almost complete inhibition of lung colonization
[2]; 0.1 μg/ml antibody, preincubated 1 h with active heparanase (200 ng), FIG. 3B
  inhibition of the enzyme: ~75%
[2]; 1 μg/ml antibody, preincubated 1 h with active heparanase (200 ng), FIG. 3A
  inhibition of heparanase enzymatic activity: complete inhibition
[2]; hybridoma supernatant pre-incubated 2 h on ice with recombinant active heparanase (200 ng), FIG. 1
  decrease in the amount of released sulfate labeled HS degradation products: ~80%
[3]
  breast carcinoma tumor growth (IVIS signal, tumor weight): attenuates the growth of breast carcinoma

From patent US12503518B2, “Heparanase-neutralizing A54 monoclonal antibody” (TECHNION RESEARCH & DEVELOPMENT FOUNDATION LIMITED, priority 2020, dated 2025)
